Experimental data published in publication PMC3401432.
Where two headings read alike, the source gives them in different places.

Columns and labels:
[1] = target: CryB, GAL4 binding domain fusion (pGBK-T7-cryB) (Rhodobacter sphaeroides); test: two-hybrid
[2] = target: His-CryB, purified from E. coli (Rhodobacter sphaeroides); test: MST
[3] = target: CryB, GAL4 binding domain fusion (pGBK-T7-cryB) (Rhodobacter sphaeroides); test: two-hybrid; remark: listed apart in the source

SCHIC domain of AppA, GAL4 activation domain fusion (pGAD-T7) (domain or fragment)
β-galactosidase activity, percent of the SV40 T antigen + p53 control [1]: 8%

B1: MBP-AppA (full-length AppA tagged with maltose-binding protein) (natural protein)
chain: MQHDLEADVTMTGSDLVSCCYRSLAAPDLTLRDLLDIVETSQAHNARAQLTGALFYSQGVFFQWLEGRPAAVAEVMTHIQRDRRHSNVEILAEEPIAKRRFAGWHMQLSCSEADMRSLGLAESRQIVTVGRSLVADNTNIFSFDRIAAVRRFLSDVCAARTLAPDTPVEADTFALYALTEAQAGRSGRAKAVARLSDLLSTDPLGRLTEVEELLRAHAPTAADFARLFEACAERLTRALAEDRISRMQVTLAYSALQMALRRIHHLPDPQKSVGAVLVAGVPGHKPILEAALAAEMLRAVGWSTSVVHPESVAALAARLKTSRTSTLVVAPSLLEGTEQEADTLRFVSALRARTDLPGLSILVGGRLAQLPPSKLKDSGADAGFAHLALLPAALARVACPANADCCSMRACRMPASQCCDKRINPEFLLANVMPSVLTRISSRQDRRRSA
Kd [2]: 595 nM

B2: AppA full length, GAL4 activation domain fusion (pGAD-T7-appA) (natural protein)
chain: B1 chain
β-galactosidase activity, percent of the SV40 T antigen + p53 control [3]: 40%
